# Reference: the DeepSol protein solubility set
# Test: soluble on expression in E. coli; label from the status in PepcDB or PDB records
row,Sequence,soluble on expression in E. coli
1,MGSDKIHHHHHHMRKLKKYKPTAFIADGSYYDEDAADYAVAFIEALSHTKGLWAGKPFELIDWQEQIIRDLFGILKPDGYRQFNTAYVEIPKKMGKSELAAAIALLLTCGDGEERAEVYGCAADRQQASIVFEVAADMVRMCPALNKRVKLLASTKRLVYLPTNSFYQVLSAEAYSKHGFNIHGVVFDELHTQPNRKLFDVMTKGSGDARTQPLYFLITTAGTDTQSICYETHQKAVDIIEGRKYDPTFYPVIYGAKEEDDWTDPKVWKKANPSLGITVGIDKVRAACESAKQNPAEENSFRQLRLNQWVKQSVRWMPMAKWDACAFPVIPESLEGRVCYGGLDLSSTTDITAFVLVFPPEDETDKYIVLPYFWMPEDNIDLRVRRDHVQYDLWEKQGYILTTEGNVVHYGYIERFIEELGEKYNIREIAFDRWGAVQMVQNLEGAGFTVVPFGQGFKDMSPPTKELMKLTLEERIAHGGHPVLRWMMDNIFIKTDPAGNVKPDKEKSTEKIDGAVATIMALDRAIRCGSGNSGDSVYDERGLIVF,not soluble
2,MGSDKIHHHHHHMPLLDIRNLTIELDTPHGRVKALERVSLTLNPGEVHGLVGESGSGRTLLAKAILGIPGHNWTIQADRMMWDGQNLMDMSPSERRVLMGSEMAMIFQDPISSLDPAIAVGTQIIEAMPENKELPWWKRGSDKRKKAQQWLHKVGIKETQKIMSSYAWELSDGECQKVMIAIAVANQPRLLIADEPTNSMEVRTQAQIFRLLSKLNQLQNVSILLISHELETLSQWCDRLTVMYSGQVMESGVTSDVIANPYHPYTKALLDNIPDYSNPEHHKTMMQTLPGSAPALQHLPIGCRLGPRCPQAQKLCVNQPSLCHQKDRYFACHFPYHNEPCHEEPLTKS,not soluble
3,MSDITISRPEVVNGHTDVICSTSIRHILAVRKSTLLQIDTLIRQLAEISVLTESIGGKTAPDWAMKQDFRCGCWLMEKPETAMKAITRNLDREIWRDLMQRSGMLSLMDTQARDTWYRSLEYDNFPEISEANILSTFEQLHQNKDEVFERGVINVFRGLNWNYKTNCPCKFGSKIIVNNLVRWDRWGFHLITGQQADRLADLERMLHLFSGKPIPDNRGNITLRLDDHIQSVQGKESYEDEMFSIRYFKKGSAHITFRKPELVDRLNDIIAKHYPDMLAV,soluble
4,MSLKTLTRFLIIPMLSVAFFSCSESHFLKDVAYRNQVTQDFEMKKQQLPNGELFAVFNEKLTIPEQEALMFLYAYMPTGDVTDYTGDYYLENVRLSDQARREMPWGKEIPDDVFRHFVLPIRVNNENLDDSRRVFYNELKDRVKNLSLHDAVLEVNHWCHEKVIYTPSDARTSAPLASVKTAYGRCGEESTFTVAALRSVGIPARQVYTPRWAHTDDNHAWVEAWVDGKWYFFGACEPEPVLNLGWFNAPASRGMLMHTKVFGRYTGEGHHHHHH,not soluble
5,MFGRQVGRVVFRTASVVVQRRSVSASVPQMVKLVAPSVNFIQTRGSKIEVFGPFDPPKQLTFKQVEDRVLKAVRSWDRFPADKESLLKLDADLSKDFGFDSLDQVEIVMALEDEFGFEIPLQDSDKFKTIRDAFKYICEREDVYE,not soluble
6,NTRGMALFADGGIVGTKPYAASGSYIKKMSDYCKGCHYDNKARSGEGSCPFNSLYWRFMDKHEKRLATNPRIGMIFRSWDNMEASQRQAILDT,not soluble
7,MGSDKIHHHHHHMQIVQIEQAPKDYISDIKIIPSKSLLLITSWDGSLTVYKFDIQAKNVDLLQSLRYKHPLLCCNFIDNTDLQIYVGTVQGEILKVDLIGSPSFQALTNNEANLGICRICKYGDDKLIAASWDGLIEVIDPRNYGDGVIAVKNLNSNNTKVKNKIFTMDTNSSRLIVGMNNSQVQWFRLPLCEDDNGTIEESGLKYQIRDVALLPKEQEGYACSSIDGRVAVEFFDDQGDDYNSSKRFAFRCHRLNLKDTNLAYPVNSIEFSPRHKFLYTAGSDGIISCWNLQTRKKIKNFAKFNEDSVVKIACSDNILCLATSDDTFKTNAAIDQTIELNASSIYIIFDYEN,not soluble
8,MSEVLTRGFRFRPADEEVTDYLMRKTQSPEFSCFIKTIDLYDKDPWVLGHVRDPCYNHYEWYYFVKKNPLGNEYLDKPRLNGFEHPRLKWDVLKQIHDALSSGQNVPPSVFTYGFRFHPTDQELLSLYLTPKAHSPDFSCFIRERESYMPWSHGFLNMLDLLFTRTVNGTTL,soluble
9,MRKFIFILLLIISSFSFCSNEISVDKSVEESVTKDYDQDGKYSSYERALRNAQGSIYVTLPEKRGYWYTILDRIKAEEDELMPDEKARIRRK,not soluble
10,MAHHHHHHMLANYDYESDLRGRTDELGRAQHVDAYDKHPTFLESPYAGQEDLLRDAPQSYMDGPPPGYGGHDAYEHVDMNGGGYDLPLQPQAQTQAVDTRRLSKDRLARGGLNIFSWSTDAPTLNHPREVRERDCAELQRLRPVDSAAQRDKEVREKFEGNTQSRFLCFSESDSPGKRRGVRVFNPNNKNGNLNSGTGHENPIQNRFNEEPQPFKIRQQQPRPLPQQNLPPAGRATHSNRQESGGIPGFAGMGEGRQHNARRGRGSYRG,soluble
11,MAHHHHHHMKRRCDLLEVHSVAARPHKRGGTETTREHHFPLYSHPMFRAARHNANAVQDAVAEQSDRVDPGALDAALENMVTQLVEQRLSRHEAEGDTSPTLAKKNFIVTESELLALLAEATHATPLSPRPQQPPSAFPPSRPEAIAALAAAAAASSPPPQQGPFIPNQGYHTTHPPLQSNGDAERRAGPPPRTQASLFSGAASALGGDEPDELNVVSVGALQQAALRSLGHMDEQAAPRLPPLSESVASTTSGPTTKQRHPPTMPLYSLLPCLVASPGLTAASVLPAIVSSSLNPSPSSVTFREMDRCPGTGTGLVAQQSVDAQQLHQVPDAVFAAMDVLMDGNNCCMRRRKRLVATNGNKAESLSLNPRCLPGSGGGASGGSCFAFGCGSKGASLNRMYVPVAQNTLPAPPPPRTASEAKARRILEGQRRKQRLHDQQQHLVSNSFSLAGGGNTAPLSSSLVEFRSDTTSLPTEPFRWRHIDRSGSRTHSSAHPAPLPAASSVSRSAAVVVGTASTLPLTQEASLTFTLRDIAGEPVYMQAISAANRCWPASLI,not soluble
12,MIAKHIDRFPLLKLDRVIDWQLIEQYLNRQKTRYLRDHRGRPAYPLLSMFKAVLLGQWHSLSDPELEHSLITRIDFNLFCRFDELSIPDYSTLCRYRNRLAQDNTLSELLELINRQLTEKGLKIEKASAAVVDATIIQTAGSKQRQAIEVDEEGQISGQTTPSKDSDARWIKKNGLYKLGYKQHTRTDAEGYIEKLHITPANAHECKHLSPLLEGLPKGTTVYADKGYDSAENRQHLEEHQLLDGIMRKAHRNRPLTEVQTKRNRYLSKTRYVVEQSFGTLHRKFRYARAAYFGLVKVSAQSHLKAMCLNLLKAANRLSAPAAA,not soluble
13,MSLSKFAERLQTVANKPEVFQKFSRGLERESLRYTPEGALTQTPHPKALGAALTHRWITTDFAESLLEFITPVSHEVDTLLAQMSDIHHFAQTKLGDEKLWPLSMPCYVGSEEGIVLAQYGSSNTGKMKTLYREGLKRRYGSLMQIISGVHFNFSFPESFWDALFGEQEESARQASKSAAYFGVIRNYYRFGWLIPYLFGASPALCSSFLQGRKTDLPFESIGKTLYLPYATSLRLSDLGYTNSAQSVLQIGFNSIEQYLQGLNEAIRTPSAEFAKLGVKVEGEYRQLNSNVLQIENELYAPIRPKRVTQSGERPSQALARAGVEYIEVRSLDVNPFSPIGINEDQVRFLDLFLAWTALSDSDPMDGCELACWRDNWRKVVLEGRKPGLELQIGCHGEVLTLQAWAKRVFADLRVIAETMDAALGGDAYQAVCAKLETWIENPELTLSAQILAEIKQHGGLGKTGCALGNEYRAVNLQHQYQFYSQDEMEQEVRRSTQAQADIEAKETLNFDAYLTQYFAYLQAVSEGGSHHHHHH,soluble
14,MNSGNMQDTLDLEKKLRGYLFGTACADALGRPVEHLTLKQIKEKYGEKGILELPPNSSWTDDTQLMLVLARGLLHGAEFELPELMKHIAGELVLWLKEPDLGAGATTKGAALSLKDGIHWSESGLNSKTCGSLMRVGILGFIFSNDPDKLIEAASLSGRITHNHPTADAASVAGAYAVKLALDGIAPEDMFLPLLRVTEGISDEFTEALKHSYELAHSNLSDEEALQKLGQGWYADETFALAYFCILRYPDNYKKAVQTGVNITGDSDSVGSVAGGILGARLGIEAVPVSWVESLKEKEIIEEMVEPLIEKYLEVSENKHQVSEDGFGAMAGDPLEHHHHHH,soluble
15,MSLATKLRRVRKSPPEGWDLIEPTLEQFEAKMREAETEPHEGKRKTEINWPIFRIHHQRSRYVYDMYYKKAEISRELYEFCLTAKFADAALIAKWKKQGYENLCCVKCVNTRDSNFGTACICRVPKSKLDAERVIECVHCGCHGCSG,not soluble
16,KFFNLFLKKGNKINPLIGNAGVSAVPDSARISQVIGLEYDPTNYLLMHAM,not soluble
17,MPPAVPAAAATARQSASGRERNFKDKDKPESVRNSNIVAAKAVADAVRTSLGPRGMDKMIQSGNGDVTITNDGATILNQMSVIHPTAKMLVELSKAQDIEAGDGTTTVVVMAGALLDAAQNLLSKGIHPTTISESFQSAAAEAEKILDEMSSPVDLSNDALLNKMATTSLNSKVVSQHSWLLAPMAVNAVKKIINSENDSNVNLKMIKIIKKMGDTVEESELIEGALIDQKTMGRGAPTRIEKAKIGLIQFQISPPKTDMENQVIITDYAQMDRALKEERQYLLEICKQIKAAGCNVLLIQKSILRDAVNELALHFLAKMKIMCIKDIEREDIEFYSRILGCRPVASVDHFNADALGYADLVEEIPTGGDGKVIKVTGVQNPGHAVSILLRGSNKLVLEEADRSIHDALCVIRCLVKKKALLPGGGAPEMEIAVKLRNLAQTQHGATQYCWRAFADALELIPYTLAENAGLSPIHTVTELRNNHANGNSSYGVNVRKGYVTDMVEEDVVQPLLVTASAIKQASECVRSILKIDDIVMAVR,not soluble
18,MNEVLRQEKKYLISLEDYYLLSKKFSQVMTLDSHSSDDGYTIRSLYFDSLEDVDWQEKEDGVEIRRKIRLRNYGSQSNFAKLEMKQKQGANQKKRSLKLSKTDAQALINGNNSVLLNYPDTFAAECYSRITTQLYQPKTVIEYQRKAFVAKENNIRITFDHHIIGTEASYDIFSEDLNQNYLLDPYLVILEVKYNGFLLSYIKELLDSVDRSELSASKYCLGRAVSKHYRFLEHHHHHH,not soluble
19,DTVIAMDAYTPHDVTTQAQQLIDATPTAPALAPMTWPTPRVAARVRTQRDQRGRAPKPPRARGIDTIQHGRDDIDLRAISQLACTSQTQAIARIIATLEKRVDDHTPMITLVNDVLAEIETHGWAALSGQRAGSHAERHPGRVAMPRPQEVMAALNRYRGLSLVGSLDA,not soluble
20,MGSDKIHHHHHHMSIPNAIKHTQTDSALSNIALSNTRDHLLTTGYKLIAQKGFTAVGIKQILDTAGVPKGSFYHYFASKEAFGEAIISHYFTQYKQRLNIIGSQDVSAQQKLYDYFQNWYDTQQSGCDHEKCLVVKLSAEVSDMSEPMRKVLHTGYQQTITWLATQIKAGWVDGSVPHPANVAAESMAKRWYFAWLGASLVTKISQTDTPLAEAWLMTTTAMGR,not soluble
21,GHMTDEDSEANALADPDNPPLSAEQLASAPRMPRIKIIRRALKLTQEEFSARYHIPLGTLRDWEQGRSEPDQPARAYLKIIAVDPEGTAAALRKGATGS,soluble
22,MREKLFWILKKYGVSDHIAKAFLEIPREEFLTKSYPLSYVYEDIVLVSYDDGEEYSTSSQPSLMALFMEWVGLDKGMRVLEIGGGTGYNAAVMSRVVGEKGLVVSVEYSRKICEIAKRNVERLGIENVIFVCGDGYYGVPEFSPYDVIFVTVGVDEVPETWFTQLKEGGRVIVPINLKLSRRQPAFLFKKKDPYLVGNYKLETRFITAGGNLGNLLERNRKLLREFPFNREILLVRSHIFVELVDLLTRRLTEIDGTFYYAGPNGVVEFLDDRMRIYGDAPEIENLLTQWESCGYRSFEYLMLHVGYNAFSHISCSI,soluble
